According to the domain aggregation screens of Martell et al. (2025):

Test: soluble fraction after stress (log2 fold change); higher = more stays soluble; pooled small domains, quantitative proteomics
Settings: stress: pH 4
How it was run: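 Custom libraries of small protein domains were pooled and measured with high-throughput quantitative proteomics after pH 4 stress. The read-out is the fold change in the amount of each domain that stays soluble after the acid stress, taken as a measure of aggregation propensity. Fold changes are on a log2 scale, and higher values mean more of the domain stayed soluble.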

Sequence: HMERTQSIEAAREQLGEVTKDNVFETETLGALAILKENEPGEYAKIKADLKGKINMNDLERAVKKAAADQR
- soluble fraction (log2): -0.0729

Sequence: HMVITEQTVTVKYLYEDDTEAAPEHSETHKTGETFEIESPKIDGFTPDYELITGTIANDDLVYIVRYKTTP
- soluble fraction (log2): -0.526

Sequence: HMDDAIAEKTGGAVSSVNQRQAILDHIREAYGIELESLRSTDIERYLDDPEIPEPVKDILRDRLRGAK
- soluble fraction (log2): 0.0292

Sequence: HMDRDMGSMTDFENVRDAYLTGKVWNVGDLIEANGITGIIIRKGTNYVSYNDGDGKVHKAWLHDITL
- soluble fraction (log2): -0.98

Sequence: HMRDLAEAETILDALPTRLRKIVRWRHLEGLSQTEIAARLEISQMHVSRLYRRAISMIHASLADD
- soluble fraction (log2): -0.843

Sequence: HMAALKVAVLTVSDTRTQETDTSGAFLEGALREAGHEIADRQIVIDDVYQLRAIVSQWIADPEVEVILT
- soluble fraction (log2): -1.31

Sequence: HMENEFEAYSDGSSIQLNDPSKATYVVFDRQGRLLHLFQNHSLSSLSIERKNQILIITRETADGVSVKKIV
- soluble fraction (log2): -0.167

Sequence: HMYHADLIGLEARSTAGDKLGEVNAVYNFGAGDLIEIKMTDGNLEMLPFTRQYVPTVSIKDGFIIVQM
- soluble fraction (log2): -1.08

Sequence: HMNNLVGKTKVLKSNTNIYAYKTMSGKFYSYLPNTRVRVLQDLGYINYIEVIATKRRGYVYENVY
- soluble fraction (log2): -0.165

Sequence: HMPSDLQATLRAVQGMLQGVEGVDARLAGQRILLEGDSADARARERAAAIAGIFPGVVIDFVG
- soluble fraction (log2): 0.062

Sequence: HMTLGENLQNLRKEAGLSQEQVAQQLFVSRQTVSKWENNLAEPGVENLKALARLYGVTLDRLVGM
- soluble fraction (log2): -0.323

Sequence: HMRTYEHALTEEEKELILIVSNLSEYKSLPPSQIVPKLADLGIYIASESSFYRVLRAHNQLHHRGR
- soluble fraction (log2): -1.27

Sequence: HMTYQTVRYGSTGSAVRQLQSALNQKGYQLSEDGIFGAKTRAAVRDYQKKNGLLLDGIAGSQTWNHLMS
- soluble fraction (log2): ≥ 0.43

Sequence: HMTDLALHIGKTLRELRQRRGWSLDKTAQATGVSKAMLGQIERGESSPTVVTLWRISSGLQASFSEFLPP
- soluble fraction (log2): 0.0792

Sequence: HMLLLASTPAEQTIIQLLAEGWRDGDQLQQRSHLSAADFSTALTMLEVNGSIKPLGANHWALTH
- soluble fraction (log2): -0.185

Sequence: HMTTQIPEEVQKRVNQFYEALDEEDYGEAKQILEELEKATAPDHPTLIQMRTRYEFDTMELR
- soluble fraction (log2): -1.1

Sequence: HMTANPHKPEPLQIDTSDITPGVTVIHKAFGNGTVVSVDNNRILIDFDGIEKKFPFPGAFLYGFLQK
- soluble fraction (log2): -1.17

Sequence: HMSQSIGQEKALSIALADAGVQKENALGLEVKGEYDDGQLLYEVEFRAGGVEYEYEVRASDGRIVKAERD
- soluble fraction (log2): 0.0913

Sequence: HMGSLQPLLLAAIDALQTHIRSGLPFRVEERLAELDQFRTELQNGSVPPQRGVNRLWAFYEDEFRL
- soluble fraction (log2): -0.386

Sequence: HMTPQVALNDTETAIYEKMKQEKQMLLGELRAQFDISNKLWDTSLKTLTKNQLLAVSKEDDLLFVKL
- soluble fraction (log2): -0.437

Sequence: HMGNIITQEAAVKLAQDRVPNATLVKIEYDFDDGRPVYEGELREGRWEYEFEIDAATGEFLKWEKD
- soluble fraction (log2): -0.163

Sequence: HMIYMIDPNDEIAVKLDEIYQRYLNRTIDPEGLIFFYNQIRNAQMGYSDVEKRILESPEYVSIPK
- soluble fraction (log2): -1.23

Sequence: HMETKKEIIEAINELEEKYRNAIYLTSIEKLSYEETSKILGQSLSNTKNLIHRGKQQLRKILIKK
- soluble fraction (log2): -0.37

Sequence: HMENLQLQQLVKGLPEKMQEIVILRFSQELTMREIADIVNLPMRTVQSQLRLALKILKKEMG
- soluble fraction (log2): 0.145

Sequence: HMAKRDEIEAELPRFVATITQELAASRDVLSMIEHYKQNSGPVFSAELDVLTADMRSGSYEAALTRFEARF
- soluble fraction (log2): -0.0581

Sequence: HMQIYSQEIYDAQKVLKELGLYTSDLDGLNGPGTKRALRNFQSKSGLNADGVLGPLTKSALDKGEESYITV
- soluble fraction (log2): -0.0943

Sequence: HMVVEGMQFDRGYLSQYMVTDNEKMVADLENPYILITDKKISNIQEILPLLESILQSSRPLLIIADD
- soluble fraction (log2): -0.573

Sequence: HMKDRNISSSVLEILSKDPDHTYNYKQIAALLGVKDAFIRKRIVTLLAQLAKDGHLDEISRGKYQIK
- soluble fraction (log2): -0.0199

Sequence: HMRKVVLEEKEANYYAEPNSESELLGVLKRGIHLTVTDVKKEAGSDGWVKLVHPDGQEGWISGRARIRV
- soluble fraction (log2): -0.209

Sequence: HMPPRFVPATGADLRRWLDVSGLTAEAAGDLLGVSGARFRQWLSRYRSAPLPDPVRALLVALLRP
- soluble fraction (log2): -0.156

Sequence: HMKNKRERLGIISEILRMQVIGSQEELLDILRAKGYDVTQATLSRDLKVLKVAKTPLSNGAYKYVLPPQ
- soluble fraction (log2): ≥ 0.43

Sequence: HMDTQKYDLNDDGRFDVQDVTYLQIKIAGDGELTDNQKKIADYNNDGKIDVQDVTSAQMLIS
- soluble fraction (log2): -0.724

Sequence: HMIPDMSLELAMSEQTSKGDLYGDLPNDKLALMFNAISKKVPHTDDHKRKMVAIQTILESRAS
- soluble fraction (log2): 0.0127

Sequence: HMVAQEVPYSTFVMRLDRNEVDAVKIIDGNEIEGTFKSPNGDLVQFKTLIPYQDTELMPLLKQKGVRISGS
- soluble fraction (log2): ≥ 0.43

Sequence: HMESSNLESQLKKGIVPNLNGLSAKDALFLLENSGFNVKLYGMGSVKKQSLEAGKKYNKGDKITLIL
- soluble fraction (log2): 0.219

Sequence: HMEDIKHVVANNIKKYRKEERLTLQQLSYLTGVSKTMLNQIETEKSSPSITILWRISSGLKIPLSKLISSP
- soluble fraction (log2): 0.143

Sequence: HMSEEKLVFSIPDDIETMRIDKAIALETHLSRAQIAELFKENKILLNSKNSKRSEKVKPGDKISLEFIPKI
- soluble fraction (log2): -0.0612

Sequence: HMVVANTAIKSELQNIVANENKQAPLSDQKIVDQLKQAGFDISRRTVVKYRDALGIPTSRNRKR
- soluble fraction (log2): 0.112

Sequence: HMKKMSFKEAFLKYVEIKDNPYNMESVKMLVSLQPLIVKAYSILGVDKVRRLNYVKTKIQDAIINGD
- soluble fraction (log2): 0.0648

Sequence: HMIAVSQEQIKQIIVDDPSFHDANGKFSQALLTQYLNQRRMSEDQFVEEIRDQFLFQNLQNLVQNG
- soluble fraction (log2): -0.623

Sequence: HMSKEDDSLVVTFRRMLLEEVDLHELSRIDANQRRARLERVIAHLVSREGVILSASERNQLVRRVVDEAV
- soluble fraction (log2): -0.801

Sequence: HMKGTVLAPGIILNADDQRFTYLQEDVASVAKDGAAIVLKQGDEVDFIADGQTAKQIYLTKT
- soluble fraction (log2): 0.0738

Sequence: HMIDYTDTSAVKDSAAVAGRVREMINEGVPIADVNAFIRSASENGLISDDSARRLRYMNDSR
- soluble fraction (log2): ≥ 0.43

Sequence: HMISKAQLFSEEELTELYRATGYQLENDPEIHREQFEALQAVRAKIEYAVPDVQEKLEQEQNLGQQ
- soluble fraction (log2): -1

Sequence: HMISAEPVGEDLFKVAFPFLGGSTVFEKTIEQFIEEHPSKRIDHIYTVPNPLRLKKADALIFYIITEEK
- soluble fraction (log2): -1.12

Sequence: HMGELDPKIIAQINTFLQGITKLIEHPGNKDAKKTALGALHKLTFDQNITANFGKQLGQLDQVIQSSEET
- soluble fraction (log2): -0.127

Sequence: HMDTAGSVAIVSKSVIENGFGEIKYKGTYFKAQSDVYIPKDQMVKVIGKGDEQGSFLIVEKLN
- soluble fraction (log2): -0.0172

Sequence: HMEIIMIVITKPSITDERIAEIVAVIERNGGVQAHVSKGTDRTVIGIIGKAEPTLAEHLRQMKGVENVIKI
- soluble fraction (log2): -0.327

Sequence: HMGSLGSLLKSVRNQRGLSRQQMAQSLNIGVRAIEQIEEGERKPDLELLNRYARGLMDPSVT
- soluble fraction (log2): -0.138

Sequence: HMPTVLKQGSTGQEVKELQQALSKLGYRVTVTGEFDTATHYGVVRFQRKHRLTIDGIVGPQTLSKIRAHQK
- soluble fraction (log2): -0.0726

Sequence: HMSNWTILIIQGSAHLIDLDSKITEIDGFGSFPTKILQDYNLNEEFEIFDTNVKMVNSVQSDLQSN
- soluble fraction (log2): -1.97

Sequence: HMSDEAGKVLQLLRENGGYLPYNDRSDPEDIYAFFSMSKKTFKMTAGNLYKQKKIIFTNTGIKLTE
- soluble fraction (log2): 0.317

Sequence: HMNYSIVNVGFNNKSLFLRSAPGYSASRLLLPFATERAFVRETLSNGWSRVIVRGTEGYLPTEYVAD
- soluble fraction (log2): -0.553

Sequence: HMSSPTAKATGSSVNIRKSASTGAAVLKRVEKGTVLEAVSISDGWVKVKYSGVTGYVSADYVKVSGL
- soluble fraction (log2): 0.154

Sequence: HMKIAEALNLRGDADSYERQEAIWLLEHIVGMSALELKYRGEQDLTEDQLQQYRSGLQRLEQGEPLAYVIG
- soluble fraction (log2): -0.73

Sequence: HMKDHKSKWMAKTELDSIAKNLSKKHAISLDYEEDGTRFYAGGQSPLGIGRLFTVFVAPRNGHWSDQLR
- soluble fraction (log2): -0.0435

Sequence: HMRSEILNLLREKSPQPVSGQDLANHFGITRTAVWKHIQSLKKMGYGIEAYTKKGYVLVSVPN
- soluble fraction (log2): 0.175

Sequence: HMLTKSVLGNQIKVLRLEKGLSQEEFGAPVDLSRSAVSQIESGQMYPSLESIGKIVKYYSTSWDNLVG
- soluble fraction (log2): -0.162

Sequence: HMILNDRSELLDVVKRVIAANPASVADYRKGKKKVLGFLVGQAMKETKGQADPRILNELFLQELGEN
- soluble fraction (log2): 0.0701

Sequence: HMHNISQTGRRIAGMTQERWAEALDISVESVRLYESGRGMPSDDVATRMVEVSGAPVLGYWH
- soluble fraction (log2): -1.08

Sequence: HMLPISGDDRDALDMAALILKQYDSLPILKEFANVVTKLQTVLDGVVSNSIEARRQMIQFEE
- soluble fraction (log2): -0.48

Sequence: HMTLDSLEKLSVNDLEKMLVNMPVGYKTIFLLSVIDEYSHKEIGELLGITPETSRSQLFRAIKWIKTNIF
- soluble fraction (log2): -0.706

Sequence: HMPGTEAQDGEVLLDALRRIHPDSSTGTLRRMLTQGRVQVDGTTVHAAKAELTSGQHVEVVAR
- soluble fraction (log2): -0.0746

Sequence: HMNDRLFQILYLLLEKGTMTAPELSRALEVSVRTIYRDIDALSLAGVPVYATQGKNGGVSLLPNY
- soluble fraction (log2): -0.758

Sequence: HMSDIATLVPGPTDAELAASALRGLDAALDADTPVRLSLGEPGGEVEVPRSVLAALARVLDSFAHGEGVTL
- soluble fraction (log2): -0.443

Sequence: HMSSKSDQLYLQLRRRISAMKDGEPFPTVRQLMTEYQVSQSTVTPAINQLKEKGLIEAYVGRGSFVSKK
- soluble fraction (log2): 0.161

Sequence: HMTKSTLQRQKIIADLIESGNISSQNQLKGLLKKNSLLITQATLSRDLSELGAIKKRQKDGLLVYVLPK
- soluble fraction (log2): -0.0863

Sequence: HMVMVVDVLKALSNNSSDKFFNTSISNAIKAQEDSQEDFVTLFGIEYEKLSPNNGLAVIFTSQ
- soluble fraction (log2): -0.816

Sequence: HMTHPAHLARIGALIRSARQHEGLTQAQLAELLGTSQSAIHRIEQGGQNITLDMLTRISAALDSEIVTIG
- soluble fraction (log2): -1

Sequence: HMVDTEVFSRLLRKVLAGDVTSAIRILEELIVGGRELSQFVGDFTWYMRNLLLVKTSDNPEEA
- soluble fraction (log2): -0.116

Sequence: HMEALNIEQKKVEIINVLLEKGKGKGRLSYKEISDQIDTVELDKDQMDELYETLMTNGIEIV
- soluble fraction (log2): -1.43

Sequence: HMAAVPQPQRSETIVYIGGRKFYVHTVQAGETLYSIARLYGVSEQTLVANNPTMADVVKADQNVRIPVPA
- soluble fraction (log2): -0.00329

Sequence: HMGGREEAGTDIARLLGYINDIHGEELIAKLEYYQKMLGSENFAVLMSRLPDGQKKELREQNLYSEYV
- soluble fraction (log2): -0.298

Sequence: HMGTRPAYAADAPNPQKRFIYHRIVDQLRNKATGAPISYRAIAAETGVSVQTVINIKNRMNQMLSEK
- soluble fraction (log2): ≥ 0.43

Sequence: HMSSSYTEMQLERFKELLNKETLLSSEKNELKNLISDFDKISEIVSPLVVGAYLQLKNEHIETINSLG
- soluble fraction (log2): -0.846

Sequence: HMIQMRVKVPKNIAGGSLMGAHHFVKSALARTNPGGSTSNYKIQATDGTPLTLGDLTARQYDEVLIISG
- soluble fraction (log2): -0.617
